Values joined by “and” are separate entries in the source; they are usually repeats but may differ in a detail not shown here. Equal values may be shown once.
Experiments:
[1] = biological target: HIV-1 strain HTLV-IIIB (virus grown in H9 cells; envelope glycoprotein gp120 on the virus) (HIV-1 strain HTLV-IIIB) (UniProt P04578); assay: cell-based or functional assay
[2] = biological target: gp120, the major envelope glycoprotein of HIV-I (radioiodinated 125I-gp120; unlabeled purified gp120) (HIV-1); assay: saturation binding of 125I-gp120 in solution, immunoprecipitation with OKT4, Scatchard analysis

| Substance | Indirect immunofluorescence (% positive cells), 1:4 inhibitor supernatant (% positive cells) [1] | Indirect immunofluorescence (% positive cells), undil. inhibitor supernatant (% positive cells) [1] | Reverse transcriptase (cpm/ml x 10^5), 1:4 inhibitor supernatant [1] | Reverse transcriptase (cpm/ml x 10^5), undil. inhibitor supernatant [1] | Kd [2] [pM] |
| --- | --- | --- | --- | --- | --- |
| CD4T (product of pRKCD4T: CD4 fused after residue 368 of mature CD4 to 9 residues coded by pBR322) (from UniProt P01730 26-393) (receptor) | 18 and 16.1 | 0.4 and 0.8 | 594000 cpm/ml and 372000 cpm/ml | 11000 cpm/ml and 15000 cpm/ml | 830 |
| gDCD4T (first 27 residues of mature HSV type I gD glycoprotein fused to mature CD4T; product of pRKGDCD4T) (from UniProt Q69091 1-27; P01730 1-368) (receptor) | 26.8 and 36.1 |  | 992000 cpm/ml and 1.13e+06 cpm/ml | 14000 cpm/ml and 23000 cpm/ml | 720 |
